Assay results taken from patent US20150246136A1 (Bayer, published 2015).

B1: Example 112, conjugate of anti-mesothelin antibody MF-Ta (antibody, human IgG1, lambda, V domains shown)
VH: QVELVQSGAEVKKPGESLKISCKGSGYSFTSYWIGWVRQAPGKGLEWMGIIDPGDSRTRYSPSFQGQVTISADKSISTAYLQWSSLKASDTAMYYCARGQLYGGTYMDGWGQGTLVTVSS
VL: DIALTQPASVSGSPGQSITISCTGTSSDIGGYNSVSWYQQHPGKAPKLMIYGVNNRPSGVSNRFSGSKSGNTASLTISGLQAEDEADYYCSSYDIESATPVFGGGTKLTVLG
modifications: toxophore-linker on Cys sulfur, sites not given
B2: Example 137, conjugate of anti-mesothelin antibody MF-Ta (antibody, human IgG1, lambda, V domains shown)
VH: QVELVQSGAEVKKPGESLKISCKGSGYSFTSYWIGWVRQAPGKGLEWMGIIDPGDSRTRYSPSFQGQVTISADKSISTAYLQWSSLKASDTAMYYCARGQLYGGTYMDGWGQGTLVTVSS
VL: DIALTQPASVSGSPGQSITISCTGTSSDIGGYNSVSWYQQHPGKAPKLMIYGVNNRPSGVSNRFSGSKSGNTASLTISGLQAEDEADYYCSSYDIESATPVFGGGTKLTVLG
modifications: toxophore-linker on Cys sulfur, sites not given
B3: Example 113, conjugate of anti-mesothelin antibody MF-Ta (antibody, human IgG1, lambda, V domains shown)
VH: QVELVQSGAEVKKPGESLKISCKGSGYSFTSYWIGWVRQAPGKGLEWMGIIDPGDSRTRYSPSFQGQVTISADKSISTAYLQWSSLKASDTAMYYCARGQLYGGTYMDGWGQGTLVTVSS
VL: DIALTQPASVSGSPGQSITISCTGTSSDIGGYNSVSWYQQHPGKAPKLMIYGVNNRPSGVSNRFSGSKSGNTASLTISGLQAEDEADYYCSSYDIESATPVFGGGTKLTVLG
modifications: toxophore-linker on Lys NH, sites not given
B4: Example 136, conjugate of anti-mesothelin antibody MF-Ta (antibody, human IgG1, lambda, V domains shown)
VH: QVELVQSGAEVKKPGESLKISCKGSGYSFTSYWIGWVRQAPGKGLEWMGIIDPGDSRTRYSPSFQGQVTISADKSISTAYLQWSSLKASDTAMYYCARGQLYGGTYMDGWGQGTLVTVSS
VL: DIALTQPASVSGSPGQSITISCTGTSSDIGGYNSVSWYQQHPGKAPKLMIYGVNNRPSGVSNRFSGSKSGNTASLTISGLQAEDEADYYCSSYDIESATPVFGGGTKLTVLG
modifications: toxophore-linker on Lys NH, sites not given
B5: Example 143, conjugate of anti-mesothelin antibody MF-Ta (antibody, human IgG1, lambda, V domains shown)
VH: QVELVQSGAEVKKPGESLKISCKGSGYSFTSYWIGWVRQAPGKGLEWMGIIDPGDSRTRYSPSFQGQVTISADKSISTAYLQWSSLKASDTAMYYCARGQLYGGTYMDGWGQGTLVTVSS
VL: DIALTQPASVSGSPGQSITISCTGTSSDIGGYNSVSWYQQHPGKAPKLMIYGVNNRPSGVSNRFSGSKSGNTASLTISGLQAEDEADYYCSSYDIESATPVFGGGTKLTVLG
modifications: toxophore-linker on Lys NH, sites not given
B6: Example 133, conjugate of anti-mesothelin antibody MF-Ta (antibody, human IgG1, lambda, V domains shown)
VH: QVELVQSGAEVKKPGESLKISCKGSGYSFTSYWIGWVRQAPGKGLEWMGIIDPGDSRTRYSPSFQGQVTISADKSISTAYLQWSSLKASDTAMYYCARGQLYGGTYMDGWGQGTLVTVSS
VL: DIALTQPASVSGSPGQSITISCTGTSSDIGGYNSVSWYQQHPGKAPKLMIYGVNNRPSGVSNRFSGSKSGNTASLTISGLQAEDEADYYCSSYDIESATPVFGGGTKLTVLG
modifications: toxophore-linker on Cys sulfur, sites not given
B7: Example 138, conjugate of anti-mesothelin antibody MF-Ta (antibody, human IgG1, lambda, V domains shown)
VH: QVELVQSGAEVKKPGESLKISCKGSGYSFTSYWIGWVRQAPGKGLEWMGIIDPGDSRTRYSPSFQGQVTISADKSISTAYLQWSSLKASDTAMYYCARGQLYGGTYMDGWGQGTLVTVSS
VL: DIALTQPASVSGSPGQSITISCTGTSSDIGGYNSVSWYQQHPGKAPKLMIYGVNNRPSGVSNRFSGSKSGNTASLTISGLQAEDEADYYCSSYDIESATPVFGGGTKLTVLG
modifications: toxophore-linker on Cys sulfur, sites not given
B8: Example 141, conjugate of anti-mesothelin antibody MF-Ta (antibody, human IgG1, lambda, V domains shown)
VH: QVELVQSGAEVKKPGESLKISCKGSGYSFTSYWIGWVRQAPGKGLEWMGIIDPGDSRTRYSPSFQGQVTISADKSISTAYLQWSSLKASDTAMYYCARGQLYGGTYMDGWGQGTLVTVSS
VL: DIALTQPASVSGSPGQSITISCTGTSSDIGGYNSVSWYQQHPGKAPKLMIYGVNNRPSGVSNRFSGSKSGNTASLTISGLQAEDEADYYCSSYDIESATPVFGGGTKLTVLG
modifications: toxophore-linker on Cys sulfur, sites not given
B9: Example 130, conjugate of anti-mesothelin antibody MF-Ta (antibody, human IgG1, lambda, V domains shown)
VH: QVELVQSGAEVKKPGESLKISCKGSGYSFTSYWIGWVRQAPGKGLEWMGIIDPGDSRTRYSPSFQGQVTISADKSISTAYLQWSSLKASDTAMYYCARGQLYGGTYMDGWGQGTLVTVSS
VL: DIALTQPASVSGSPGQSITISCTGTSSDIGGYNSVSWYQQHPGKAPKLMIYGVNNRPSGVSNRFSGSKSGNTASLTISGLQAEDEADYYCSSYDIESATPVFGGGTKLTVLG
modifications: toxophore-linker on Cys sulfur, sites not given
B10: Example 129, conjugate of anti-mesothelin antibody MF-Ta (antibody, human IgG1, lambda, V domains shown)
VH: QVELVQSGAEVKKPGESLKISCKGSGYSFTSYWIGWVRQAPGKGLEWMGIIDPGDSRTRYSPSFQGQVTISADKSISTAYLQWSSLKASDTAMYYCARGQLYGGTYMDGWGQGTLVTVSS
VL: DIALTQPASVSGSPGQSITISCTGTSSDIGGYNSVSWYQQHPGKAPKLMIYGVNNRPSGVSNRFSGSKSGNTASLTISGLQAEDEADYYCSSYDIESATPVFGGGTKLTVLG
modifications: toxophore-linker on Cys sulfur, sites not given
B11: Example 140, conjugate of anti-mesothelin antibody MF-Ta (antibody, human IgG1, lambda, V domains shown)
VH: QVELVQSGAEVKKPGESLKISCKGSGYSFTSYWIGWVRQAPGKGLEWMGIIDPGDSRTRYSPSFQGQVTISADKSISTAYLQWSSLKASDTAMYYCARGQLYGGTYMDGWGQGTLVTVSS
VL: DIALTQPASVSGSPGQSITISCTGTSSDIGGYNSVSWYQQHPGKAPKLMIYGVNNRPSGVSNRFSGSKSGNTASLTISGLQAEDEADYYCSSYDIESATPVFGGGTKLTVLG
modifications: toxophore-linker on Lys NH, sites not given
B12: Example 114, conjugate of anti-mesothelin antibody MF-Ta (antibody, human IgG1, lambda, V domains shown)
VH: QVELVQSGAEVKKPGESLKISCKGSGYSFTSYWIGWVRQAPGKGLEWMGIIDPGDSRTRYSPSFQGQVTISADKSISTAYLQWSSLKASDTAMYYCARGQLYGGTYMDGWGQGTLVTVSS
VL: DIALTQPASVSGSPGQSITISCTGTSSDIGGYNSVSWYQQHPGKAPKLMIYGVNNRPSGVSNRFSGSKSGNTASLTISGLQAEDEADYYCSSYDIESATPVFGGGTKLTVLG
modifications: toxophore-linker on Cys sulfur, sites not given
B13: Example 135, conjugate of anti-mesothelin antibody MF-Ta (antibody, human IgG1, lambda, V domains shown)
VH: QVELVQSGAEVKKPGESLKISCKGSGYSFTSYWIGWVRQAPGKGLEWMGIIDPGDSRTRYSPSFQGQVTISADKSISTAYLQWSSLKASDTAMYYCARGQLYGGTYMDGWGQGTLVTVSS
VL: DIALTQPASVSGSPGQSITISCTGTSSDIGGYNSVSWYQQHPGKAPKLMIYGVNNRPSGVSNRFSGSKSGNTASLTISGLQAEDEADYYCSSYDIESATPVFGGGTKLTVLG
modifications: toxophore-linker on Cys sulfur, sites not given
B14: Example 132, conjugate of anti-mesothelin antibody MF-Ta (antibody, human IgG1, lambda, V domains shown)
VH: QVELVQSGAEVKKPGESLKISCKGSGYSFTSYWIGWVRQAPGKGLEWMGIIDPGDSRTRYSPSFQGQVTISADKSISTAYLQWSSLKASDTAMYYCARGQLYGGTYMDGWGQGTLVTVSS
VL: DIALTQPASVSGSPGQSITISCTGTSSDIGGYNSVSWYQQHPGKAPKLMIYGVNNRPSGVSNRFSGSKSGNTASLTISGLQAEDEADYYCSSYDIESATPVFGGGTKLTVLG
modifications: toxophore-linker on Lys NH, sites not given
B15: Example 142, conjugate of anti-mesothelin antibody MF-Ta (antibody, human IgG1, lambda, V domains shown)
VH: QVELVQSGAEVKKPGESLKISCKGSGYSFTSYWIGWVRQAPGKGLEWMGIIDPGDSRTRYSPSFQGQVTISADKSISTAYLQWSSLKASDTAMYYCARGQLYGGTYMDGWGQGTLVTVSS
VL: DIALTQPASVSGSPGQSITISCTGTSSDIGGYNSVSWYQQHPGKAPKLMIYGVNNRPSGVSNRFSGSKSGNTASLTISGLQAEDEADYYCSSYDIESATPVFGGGTKLTVLG
modifications: toxophore-linker on Cys sulfur, sites not given
B16: Example 144, conjugate of anti-mesothelin antibody MF-Ta (antibody, human IgG1, lambda, V domains shown)
VH: QVELVQSGAEVKKPGESLKISCKGSGYSFTSYWIGWVRQAPGKGLEWMGIIDPGDSRTRYSPSFQGQVTISADKSISTAYLQWSSLKASDTAMYYCARGQLYGGTYMDGWGQGTLVTVSS
VL: DIALTQPASVSGSPGQSITISCTGTSSDIGGYNSVSWYQQHPGKAPKLMIYGVNNRPSGVSNRFSGSKSGNTASLTISGLQAEDEADYYCSSYDIESATPVFGGGTKLTVLG
modifications: toxophore-linker on Lys NH, sites not given
B17: Example 139, conjugate of anti-mesothelin antibody MF-Ta (antibody, human IgG1, lambda, V domains shown)
VH: QVELVQSGAEVKKPGESLKISCKGSGYSFTSYWIGWVRQAPGKGLEWMGIIDPGDSRTRYSPSFQGQVTISADKSISTAYLQWSSLKASDTAMYYCARGQLYGGTYMDGWGQGTLVTVSS
VL: DIALTQPASVSGSPGQSITISCTGTSSDIGGYNSVSWYQQHPGKAPKLMIYGVNNRPSGVSNRFSGSKSGNTASLTISGLQAEDEADYYCSSYDIESATPVFGGGTKLTVLG
modifications: toxophore-linker on Cys sulfur, sites not given
B18: Example 115, conjugate of anti-mesothelin antibody MF-Ta (antibody, human IgG1, lambda, V domains shown)
VH: QVELVQSGAEVKKPGESLKISCKGSGYSFTSYWIGWVRQAPGKGLEWMGIIDPGDSRTRYSPSFQGQVTISADKSISTAYLQWSSLKASDTAMYYCARGQLYGGTYMDGWGQGTLVTVSS
VL: DIALTQPASVSGSPGQSITISCTGTSSDIGGYNSVSWYQQHPGKAPKLMIYGVNNRPSGVSNRFSGSKSGNTASLTISGLQAEDEADYYCSSYDIESATPVFGGGTKLTVLG
modifications: toxophore-linker on Cys sulfur, sites not given
B19: Example 131, conjugate of anti-mesothelin antibody MF-Ta (antibody, human IgG1, lambda, V domains shown)
VH: QVELVQSGAEVKKPGESLKISCKGSGYSFTSYWIGWVRQAPGKGLEWMGIIDPGDSRTRYSPSFQGQVTISADKSISTAYLQWSSLKASDTAMYYCARGQLYGGTYMDGWGQGTLVTVSS
VL: DIALTQPASVSGSPGQSITISCTGTSSDIGGYNSVSWYQQHPGKAPKLMIYGVNNRPSGVSNRFSGSKSGNTASLTISGLQAEDEADYYCSSYDIESATPVFGGGTKLTVLG
modifications: toxophore-linker on Cys sulfur, sites not given
B20: Example 134, conjugate of anti-mesothelin antibody MF-Ta (antibody, human IgG1, lambda, V domains shown)
VH: QVELVQSGAEVKKPGESLKISCKGSGYSFTSYWIGWVRQAPGKGLEWMGIIDPGDSRTRYSPSFQGQVTISADKSISTAYLQWSSLKASDTAMYYCARGQLYGGTYMDGWGQGTLVTVSS
VL: DIALTQPASVSGSPGQSITISCTGTSSDIGGYNSVSWYQQHPGKAPKLMIYGVNNRPSGVSNRFSGSKSGNTASLTISGLQAEDEADYYCSSYDIESATPVFGGGTKLTVLG
modifications: toxophore-linker on Cys sulfur, sites not given

Target: Mesothelin (SwissProt reference Q13421-3) (Homo sapiens, UniProt Q13421 37-622)
Experiment: cell-based or functional assay

| Binder | IC50 (nM), HT29 meso+ cells, MTT proliferation assay [nM] |
| --- | --- |
| B1 | 0.018 |
| B2 | 0.04 |
| B3 | 0.4 |
| B4 | 1.6 |
| B5 | 0.3 |
| B6 | 2.1 |
| B7 | 0.3 |
| B8 | 43 |
| B9 | 0.13 |
| B10 | 5.3 |
| B11 | 6.8 |
| B12 | 0.6 |
| B13 | 0.25 |
| B14 | 3.3 |
| B15 | 0.27 |
| B16 | 2.7 |
| B17 | 70 |
| B18 | 0.06 |
| B19 | 0.09 |
| B20 | 0.03 |
